From patent US20200165333A1 (University of Pennsylvania, published 2020)

Experiments:
[1] = molecular target: T1, human platelet factor 4 (PF4) (human, UniProt P02776 32-101); assay: SPR (Biacore), human PF4 immobilized on CM5 chip; antibody expressed in 293T cells
T1 construct: Immobilized on a CM5 chip (Biacore) or on an ELISA plate; also called human PF4
T1 sequence (looked up): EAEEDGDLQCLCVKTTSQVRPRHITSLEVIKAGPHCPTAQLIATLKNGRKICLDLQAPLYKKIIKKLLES
Experimental: (§1) The binding affinity of the mammalian-cell-expressed RTO antibodies to human PF4 immobilized on the surface of a CM5 chip was evaluated using Biacore technology. The humanized antibody (huLight, huHeavy) binds to human PF4 at nM levels (Table 1), which is almost identical to the hybridoma-expressed and mammalian-cell-expressed parental antibody mRTO (mLight, mHeavy).

[2] = molecular target: T1, human platelet factor 4 (PF4); assay: SPR (Biacore), human PF4 immobilized on CM5 chip; antibody expressed in expi-CHO cells
Experimental: as §1

Kd [1]: 0.75 nM
Kd [2]: 2 nM
B1: humanized RTO antibody (huLight, huHeavy) (antibody, V domains shown)
VH: EVQLVESGGGLVQPGGSLRLSCAASGFAFSRYDMSWVRQAPGKGLEWVATITSGDNYTYYPDSVKGRFTISRDNSKNTLYLQMNSLRAEDTAVYYCTRQGLLYYAMDYWGQGTLVTVSS
VL: DIQMTQSPSSLSASVGDRVTISCSASQGINNYLSWYRQKPGKAPKLLIYYTSSLHSGVPSRFSGSGSGTDFTLTISSLQPEDFATYFCQQFSKLPYTFGGGTKVEIKR
notes: Tested as expressed in 293T and in expi-CHO cells; also called huRTO; HuRTO
